Laboratory results published in patent US20140141037A1.

Biological target: RSV F uncleavable ectodomain (Delp21Furx, the ectodomain polypeptide) (respiratory syncytial virus)
Test: Size exclusion chromatography of the mixture of RSV F monomer and HRA peptide; monomer alone ~75 mls, reference trimer (FP deletion) ~65 mls

With LEGEVNKIKSALLSTNKAVVSLSNGVSVLTSKVLDLKNYIDKQLLPIV [RSV F HRA peptide, RSV residues 160-207] the Retention Volume Superdex P200 was 60 mL.
